Three molecules from PMC11157265 can be followed below.

The target of one test is PduA* A63R (C. freundii). The test is described as follows: native gel or EMSA; PduA, A63R and A^GGSST alone on native gel run at pH 9.5; mobility tells tessellated from not tessellated; step: hexamer with hexamer (tessellation).
The target in test [1] is PduA* (Citrobacter freundii PduA with a C-terminal 23 residue extension) (C. freundii). The test is described as follows: native gel or EMSA; PduA and variants alone on native PAGE run at pH 8.5, 4 °C; low mobility = tessellated, high mobility = not tessellated; step: hexamer with hexamer (tessellation).
For test [2] the target is unchanged. The test is described as follows: native gel or EMSA; titration of PduL into PduA trimer of hexamers on a native gradient gel (higher resolution). (In general: A gel shift assay detects complexes by their altered migration in electrophoresis.)
Test [3] shares this target. Kind of test: native gel or EMSA; titration of tagless PduL into His-tagged PduA on a 6% acrylamide native gel, with anti-His Western blot to locate PduA.

For PduA* A63R (natural protein), the stoichiometry N with PduA* A63R (C. freundii) is 3 hexamers. For “PduA* (Citrobacter freundii PduA with a C-terminal 23 residue extension) (natural protein)”, in test [1], the stoichiometry N turned out to be 3 hexamers.

B1: PduL (Citrobacter freundii), His-tag cleaved (enzyme)
chain: MDKQQLETTVTKVLDEMRERPIPLGISNRHIHLCAEDYDRLFPNHPISEKKELLQPGQYAADQTVTLVGPKGQLKNVRLLGPLRSTSQVEISRTDARTLGIAAPLRMSGSIEGTPGVRLISPFAELDLASGVIVAQRHIHMSPLDALILRVSHGDKVSVAINGDERRLIFDNVAVRVSPDMRLEMHIDTDEANAAGADNPQAFATLVSPR
With B1, the stoichiometry N (PduL dimers per PduA trimer of hexamers) in test [2] was 3. The stoichiometry N (PduL dimer per PduA hexamer) in test [3] came out at 1.

As a reminder, the stoichiometry N is the number of molecules, sites or subunits per partner or assembly.
